In the supplement of paper PMC10126150:
± gives the standard deviation of the averaged measurements.

System: ATP
Assay: switch fluorescence ratio, 500 uM ATP over buffer (Cy3 cluster intensity, sum of 5 cycles each) (fold (ratio)); higher = stronger signal-on switching upon ATP binding; sequences stand for … in TCGTCGGCAGCGTCAGATGTGTATAAGAGACAGTTTTTTTTTTTTTTTTTTTTTTTTT…TC
Conditions: aptamer strand: ATP DNA aptamer (quencher-CACCTGGGGGAGTATTGCGGAGGAAGG + anchor), 100 nM annealed; ATP concentration: 500 uM
Procedure, shortened: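 Cy3-labelled switching-strand clusters on a modified Illumina MiSeq flow-cell were annealed to 100 nM quencher-labelled ATP aptamer and imaged first in selection buffer, then after 15 min with 500 uM ATP at 22 °C. NaOH stripping and re-annealing separated each of five buffer/ATP cycles, and clusters outside 100-1000 RFU were excluded. The fluorescence ratio sums target-cycle Cy3 intensity over buffer-cycle Cy3 intensity per cluster and averages it per switch-domain sequence.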
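Also: ATP exposure 15 min at 22 °C before imaging.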

Row | Sequence | switch fluorescence ratio
1 | GTGGTGGGTT | 0.975 ± 0.018
2 | GTGGTGTAAT | 0.992 ± 0.0023
3 | GTGTAACGGG | 0.995 ± 0.027
4 | GTGTATACAT | 0.977 ± 0.066
5 | GTGTATCCGT | 0.994 ± 0.018
6 | GTGTCAATTA | 1.01 ± 0.021
7 | GTGTCAGCGG | 0.9762 ± 0.0088
8 | GTGTCCGTTT | 1.05 ± 0.039
9 | GTGTCTGGGG | 0.9858 ± 0.0076
10 | GTGTGAAGGC | 1.03 ± 0.02
11 | GTGTGACAAA | 1 ± 0.037
12 | GTGTGAGGAG | 1.05 ± 0.081
13 | GTGTGAGGGC | 0.948 ± 0.035
14 | GTGTGAGGGT | 1.04 ± 0.053
15 | GTGTGAGTTC | 1.01 ± 0.017
16 | GTGTGCGGTG | 0.982 ± 0.015
17 | GTGTGGGGAC | 0.988 ± 0.044
18 | GTGTGGGT | 1.002 ± 0.0028
19 | GTGTGTGGCA | 1.03 ± 0.038
20 | GTGTGTTGAT | 0.989 ± 0.029
21 | GTGTTAAGGT | 0.99 ± 0.019
22 | GTGTTAAGTT | 0.987 ± 0.034
23 | GTGTTAGGGG | 1.02 ± 0.069
24 | GTGTTATTAG | 1.005 ± 0.007
25 | GTGTTATTGC | 0.953 ± 0.011
26 | GTGTTCTGGA | 1.002 ± 0.006

Row | Sequence | switch fluorescence ratio
27 | GTGTTGGATG | 0.958 ± 0.069
28 | GTGTTGGGGC | 0.985 ± 0.038
29 | GTGTTTAACC | 0.984 ± 0.021
30 | GTGTTTGGTG | 1 ± 0.032
31 | GTGTTTTCGT | 0.993 ± 0.03
32 | GTGTTTTGTT | 0.986 ± 0.034
33 | GTTAAAAATG | 1.04 ± 0.051
34 | GTTAAAATAC | 1.13 ± 0.014
35 | GTTAAACGTT | 1 ± 0.014
36 | GTTAATGGGT | 0.98 ± 0.047
37 | GTTAATTGGG | 0.953 ± 0.037
38 | GTTACACGGT | 1.01 ± 0.021
39 | GTTACTAATT | 0.9943 ± 0.0081
40 | GTTACTTGGT | 1.01 ± 0.034
41 | GTTAGAATAA | 0.958 ± 0.015
42 | GTTAGAGTTT | 0.988 ± 0.03
43 | GTTAGATTGT | 0.9731 ± 0.0039
44 | GTTAGCTTAG | 0.99 ± 0.025
45 | GTTAGGGGAG | 1 ± 0.042
46 | GTTAGGTACG | 1 ± 0.07
47 | GTTAGGTCAG | 0.997 ± 0.028
48 | GTTAGTAATC | 1.06 ± 0.014
49 | GTTAGTAGAT | 1.01 ± 0.019
50 | GTTAGTCTGT | 0.9907 ± 0.0052
51 | GTTAGTGGGC | 0.971 ± 0.037
52 | GTTATAAGGG | 0.975 ± 0.03

Row | Sequence | switch fluorescence ratio
53 | GTTATAAGTG | 0.9924 ± 0.0054
54 | GTTATAATGG | 0.9998 ± 0.0087
55 | GTTATAGCTT | 1.018 ± 0.0029
56 | GTTATAGGCT | 0.999 ± 0.035
57 | GTTATAGTAT | 0.963 ± 0.054
58 | GTTATATGTG | 0.982 ± 0.055
59 | GTTATATTGG | 0.992 ± 0.022
60 | GTTATATTTT | 1.01 ± 0.032
61 | GTTATGACTC | 1 ± 0.076
62 | GTTATGCTAT | 0.996 ± 0.017
63 | GTTATTCAAT | 0.9724 ± 0.0018
64 | GTTATTGCGA | 0.997 ± 0.019
65 | GTTATTTAGA | 1.03 ± 0.043
66 | GTTCAAAATT | 1.03 ± 0.036
67 | GTTCAAGGCT | 1.0016 ± 0.0002
68 | GTTCACCAAT | 1 ± 0.07
69 | GTTCACCGGG | 1.141 ± 0.0051
70 | GTTCAGTAGG | 0.9677 ± 0.0077
71 | GTTCCCAGGA | 1.09 ± 0.02
72 | GTTCGAACGA | 0.9856 ± 0.001
73 | GTTCGAACGG | 0.9963 ± 0.006
74 | GTTCGACCCG | 1.02 ± 0.032
75 | GTTCGACTGT | 1.024 ± 0.0042
76 | GTTCGGATGG | 1.015 ± 0.0032
77 | GTTCGGCGGC | 0.991 ± 0.016
78 | GTTCGGGGTT | 1.014 ± 0.0016

Row | Sequence | switch fluorescence ratio
79 | GTTCGTACGT | 0.962 ± 0.082
80 | GTTCGTTGAC | 0.9862 ± 0.0067
81 | GTTCGTTTTG | 0.975 ± 0.035
82 | GTTCTAAAAA | 1.02 ± 0.042
83 | GTTCTGTTGG | 0.995 ± 0.023
84 | GTTCTTACTT | 0.973 ± 0.059
85 | GTTCTTGGGA | 1.03 ± 0.077
86 | GTTCTTGGTG | 1.01 ± 0.0089
87 | GTTCTTTTGG | 0.973 ± 0.01
88 | GTTCTTTTTT | 0.9511 ± 0.0071
89 | GTTGAAAGGG | 1.03 ± 0.027
90 | GTTGAACAGT | 1.01 ± 0.065
91 | GTTGAAGGAC | 0.996 ± 0.026
92 | GTTGAAGGGG | 1.029 ± 0.009
93 | GTTGAATCTT | 0.995 ± 0.035
94 | GTTGACGCTA | 1.07 ± 0.024
95 | GTTGACTTAA | 1.02 ± 0.013
96 | GTTGATAGCG | 0.991 ± 0.025
97 | GTTGATAGTA | 0.993 ± 0.031
98 | GTTGATCTGC | 1 ± 0.029
99 | GTTGATTTTC | 1.017 ± 0.0079
100 | GTTGCAGCCT | 0.981 ± 0.018
101 | GTTGCAGTTG | 1.07 ± 0.077
102 | GTTGCATATT | 0.978 ± 0.023
103 | GTTGCGACGG | 1 ± 0.028
104 | GTTGCGGGCG | 0.991 ± 0.06

Row | Sequence | switch fluorescence ratio
105 | GTTGCTATTT | 1.0045 ± 0.00071
106 | GTTGCTGGTG | 1.025 ± 0.0071
107 | GTTGCTTAGT | 0.9724 ± 0.0038
108 | GTTGGAAGAG | 0.957 ± 0.051
109 | GTTGGAAGGT | 1.02 ± 0.012
110 | GTTGGCACGA | 1.04 ± 0.018
111 | GTTGGCAGTG | 0.978 ± 0.033
112 | GTTGGCCTCT | 1.02 ± 0.022
113 | GTTGGCGGGG | 0.976 ± 0.015
114 | GTTGGCGGGT | 1 ± 0.017
115 | GTTGGCGTTT | 1.02 ± 0.08
116 | GTTGGCTTGG | 1.02 ± 0.04
117 | GTTGGCTTTC | 1.019 ± 0.0077
118 | GTTGGGATGG | 0.991 ± 0.015
119 | GTTGGGCCGA | 1.03 ± 0.038
120 | GTTGGGGAAG | 0.972 ± 0.034
121 | GTTGGGGCAA | 1.03 ± 0.02
122 | GTTGGGGCGA | 1.02 ± 0.076
123 | GTTGGGGGGC | 0.992 ± 0.036
124 | GTTGGGTAAA | 0.983 ± 0.014
125 | GTTGGGTAGT | 0.9962 ± 0.006
126 | GTTGGGTCCC | 0.9857 ± 0.0069
127 | GTTGGTAGGA | 1.01 ± 0.033
128 | GTTGGTATGT | 0.994 ± 0.018
129 | GTTGGTATTG | 1 ± 0.021
130 | GTTGGTGTAT | 0.9913 ± 0.009

Row | Sequence | switch fluorescence ratio
131 | GTTGGTTACA | 1.008 ± 0.0065
132 | GTTGGTTCCG | 0.996 ± 0.022
133 | GTTGGTTCGT | 1.02 ± 0.034
134 | GTTGGTTGTT | 0.985 ± 0.023
135 | GTTGTAAGGG | 0.998 ± 0.04
136 | GTTGTAATCA | 0.98 ± 0.024
137 | GTTGTACGAG | 0.9824 ± 0.0058
138 | GTTGTACGGG | 1.02 ± 0.047
139 | GTTGTAGCCA | 0.966 ± 0.043
140 | GTTGTAGGTT | 0.966 ± 0.023
141 | GTTGTATACT | 0.993 ± 0.076
142 | GTTGTATAGA | 1 ± 0.019
143 | GTTGTATGTT | 1.02 ± 0.039
144 | GTTGTCAGGG | 0.982 ± 0.012
145 | GTTGTGAGGA | 0.984 ± 0.036
146 | GTTGTGAGGG | 0.981 ± 0.018
147 | GTTGTGATAG | 1.01 ± 0.021
148 | GTTGTGATTT | 0.953 ± 0.032
149 | GTTGTGCCTG | 1.01 ± 0.041
150 | GTTGTGCTGA | 1.02 ± 0.0085
151 | GTTGTGTTGT | 0.979 ± 0.028
152 | GTTGTGTTTT | 1.01 ± 0.026
153 | GTTGTTAAGG | 0.996 ± 0.014
